Assay results reported in patent US20130131322A1 (MEDICAL AND BIOLOGICAL LABORATORIES, published 2013).

Tests used:
[1] = target: commercially-available secreted TGF-α biosynthesized by Escherichia coli (R&D systems Inc.) (human, UniProt P01135 40-89); assay: cell-based or functional assay
[2] = target: T1, G79A-substituted human TGF-α expressed on 293T cells (human, UniProt P01135 24-160); assay: flow cytometry on 293T cells
T1 construct: Made from pDIG-TGF-α (positions 1 to 160); also called G79A substitution analog; G79A-substituted TGF-α
Method: (§1) After washed with a wash buffer twice, the cells were allowed to react with a 200-fold diluted PE-labeled anti-mouse IgG antibody (MBL CO., LTD.) at 4° C. for 60 minutes.

[3] = target: T2, H74A-substituted human TGF-α expressed on 293T cells (human, UniProt P01135 24-160); assay: flow cytometry on 293T cells
T2 construct: Made from pDIG-TGF-α (positions 1 to 160); also called H74A substitution analog
Method: as §1

TGF-α-hFc = target: T3, TGF-α-hFc (human, UniProt P01135 40-89); assay: solid phase ELISA, TGFα-hFc on plate
T3 construct: not shown: Fc portion of human immunoglobulin G1, fused on the C-terminal side
T3 sequence (P01135 40-89 limits assumed): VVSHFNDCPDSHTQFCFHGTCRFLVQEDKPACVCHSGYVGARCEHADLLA

proTGF-α-hFc = target: T4, proTGF-α-hFc (human, UniProt P01135 24-89); assay: solid phase ELISA, proTGFα-hFc on plate
T4 construct: not shown: Fc portion of human immunoglobulin G1, fused on the C-terminal side

Chain of commercially-available secreted TGF-α biosynthesized by Escherichia coli (R&D systems Inc.) (P01135 40-89): as the sequence (P01135 40-89 limits assumed) above

B1: MBL018-1 (antibody, mouse IgG1, V domains shown)
VH: EVQLQQSGTVLTRPGASVKMSCKASGYTFTNFWIHWVKQRPGQGLDWIGAIYPGNTNTDYNQKFQGKAKLTAVSSASTAYMELSSLTNEDSAVYYCTRGGAMDYWGQGTSVTVSS
VL: IVMTQTPKLLPVSAGDRVTMTCKASQSVDNSVAWYQQKPGQSPKLLIFYASNHYTGVPDRFTASGSGTDFTFTISSVQVEDLAVYFCQQHFSSPRTFGGGTKLEIR
[1]
  inhibition of EGFR tyrosine phosphorylation (P-Tyr1173) in A431 cells, antibody at 10 µg/mL: ≥ 70%
[2]
  binding result: no binding (tested: 5 µg/mL)
[3]
  binding result: binds
TGF-α-hFc
  OD (solid phase ELISA): 0.703 OD
proTGF-α-hFc
  OD (solid phase ELISA): 1.51 OD
